# According to the supplement of paper PMC7877785:
# ± gives the uncertainty stated by the source.
# Assay: self-splicing fitness, log relative to wild type (ln ratio); higher = more splicing; Tetrahymena group I intron in knt gene, E. coli kanamycin selection, DiMSum; sequences stand for … in CUCUCU…GGAGGGAAAAGUUAUCAGGCAUGCACCUGGUAGCUAGUCUUUAAACCAAUAGAUUGCAUCGGUUUAAAAGGCAAGACCGUCAAAUUGCGGGAAAGGGGUCAACAGCCGUUCAGUACCAAGUCUCAGGGGAAACUUUGAGAUGGCCUUGCAAAGGGUAUGGUAAUAAGCUGACGGACAUGGUCCUAACCACGCAGCCAAGUCCUAAGUCAACAGAUCUUCUGUUGAUAUGGAUGCAGUUCACAGACUAAAUGUCGGUCGGGGAAGAUGUAUUCUUCUCAUAAGAUAUAGUCGGACCUCUCCUUAAUGGGAGCUAGCGGAUGAAGUGAUGCAACACUGGAGCCGCUGGGAACUAAUUUGUAUGCGAAAGUAUAUUGAUUAGUUUUGGAGUACUCGUGGUCG
# Outline: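 Library with all eight P1ex-region intron nucleotides randomised, intron inside the knt kanamycin-resistance gene on pET-22b(+), in E. coli BL21(DE3). Cells grew overnight at 37°C or 30°C on LB agar with or without 25 μg/mL kanamycin (plus 100 μg/mL carbenicillin, 50 μM IPTG, 0.2% rhamnose), in six replicate transformations. Pooled colonies were amplicon-sequenced on Illumina HiSeq 2500. DiMSum fitness is the error-weighted combination of wild-type-normalised replicate fold changes, kanamycin versus none.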
sequence,measurement,setting,value
GCCGAGCAAUAUUACGUAUU,self-splicing fitness (ln),30 °C,-3.72 ± 0.21
same,self-splicing fitness (ln),37 °C,-1.9 ± 0.15
UUCCAGCAAUAUUACGCGAG,self-splicing fitness (ln),30 °C,-0.566 ± 0.082
same,self-splicing fitness (ln),37 °C,-0.29 ± 0.082
UUUCAGCAAUAUUACGCUAA,self-splicing fitness (ln),30 °C,-1.25 ± 0.18
same,self-splicing fitness (ln),37 °C,-0.815 ± 0.17
UGCAAGCAAUAUUACGUAAU,self-splicing fitness (ln),30 °C,-1.85 ± 0.089
same,self-splicing fitness (ln),37 °C,-1.86 ± 0.13
CGCUAGCAAUAUUACGCACU,self-splicing fitness (ln),30 °C,-1.27 ± 0.089
same,self-splicing fitness (ln),37 °C,-0.65 ± 0.11
UGUCAGCAAUAUUACGAACA,self-splicing fitness (ln),30 °C,-0.481 ± 0.068
same,self-splicing fitness (ln),37 °C,0.521 ± 0.086
UUUCAGCAAUAUUACGGGGC,self-splicing fitness (ln),30 °C,-2.91 ± 0.18
same,self-splicing fitness (ln),37 °C,-3.35 ± 0.31
ACAGAGCAAUAUUACGAUGA,self-splicing fitness (ln),30 °C,-1.49 ± 0.17
same,self-splicing fitness (ln),37 °C,-1.15 ± 0.16
UAUGAGCAAUAUUACGACAA,self-splicing fitness (ln),30 °C,-2.78 ± 0.29
same,self-splicing fitness (ln),37 °C,-0.6 ± 0.18
CCUGAGCAAUAUUACGGAGC,self-splicing fitness (ln),30 °C,-1.59 ± 0.47
same,self-splicing fitness (ln),37 °C,-1.9 ± 0.38
GUGAAGCAAUAUUACGUCUC,self-splicing fitness (ln),30 °C,-0.941 ± 0.11
same,self-splicing fitness (ln),37 °C,-0.553 ± 0.12
GUCGAGCAAUAUUACGACAU,self-splicing fitness (ln),30 °C,-0.997 ± 0.015
same,self-splicing fitness (ln),37 °C,-0.465 ± 0.033
UACAAGCAAUAUUACGAUCU,self-splicing fitness (ln),30 °C,-0.941 ± 0.075
same,self-splicing fitness (ln),37 °C,-0.61 ± 0.077
GGCUAGCAAUAUUACGUGCG,self-splicing fitness (ln),30 °C,-0.139 ± 0.099
same,self-splicing fitness (ln),37 °C,0.371 ± 0.15
UUGAAGCAAUAUUACGGUUU,self-splicing fitness (ln),30 °C,-2.88 ± 0.11
same,self-splicing fitness (ln),37 °C,-2.69 ± 0.19
ACCGAGCAAUAUUACGGCAA,self-splicing fitness (ln),30 °C,-1.19 ± 0.12
same,self-splicing fitness (ln),37 °C,-1.48 ± 0.12
CACGAGCAAUAUUACGCUCG,self-splicing fitness (ln),30 °C,-4.11 ± 0.39
same,self-splicing fitness (ln),37 °C,-1.3 ± 0.22
GGUGAGCAAUAUUACGCCCU,self-splicing fitness (ln),30 °C,-1.66 ± 0.41
AGACAGCAAUAUUACGUUGA,self-splicing fitness (ln),30 °C,-3.58 ± 0.16
same,self-splicing fitness (ln),37 °C,-1.77 ± 0.11
GUCUAGCAAUAUUACGAGCG,self-splicing fitness (ln),30 °C,-2.05 ± 0.14
same,self-splicing fitness (ln),37 °C,-0.599 ± 0.16
AGCGAGCAAUAUUACGAGGC,self-splicing fitness (ln),30 °C,-3.16 ± 0.44
UCGCAGCAAUAUUACGUCAA,self-splicing fitness (ln),30 °C,-2.69 ± 0.15
same,self-splicing fitness (ln),37 °C,-0.094 ± 0.11
AACAAGCAAUAUUACGACGG,self-splicing fitness (ln),30 °C,-2.3 ± 0.14
same,self-splicing fitness (ln),37 °C,-1.93 ± 0.12
GUAAAGCAAUAUUACGCUGG,self-splicing fitness (ln),30 °C,-0.164 ± 0.086
same,self-splicing fitness (ln),37 °C,-0.981 ± 0.14
UAAUAGCAAUAUUACGCGCA,self-splicing fitness (ln),30 °C,-1.13 ± 0.086
same,self-splicing fitness (ln),37 °C,0.129 ± 0.1
UGAAAGCAAUAUUACGGGGA,self-splicing fitness (ln),30 °C,-1.92 ± 0.21
same,self-splicing fitness (ln),37 °C,-0.977 ± 0.19
CCAAAGCAAUAUUACGCCCU,self-splicing fitness (ln),30 °C,-3.49 ± 0.42
same,self-splicing fitness (ln),37 °C,-3.01 ± 0.27
CGUGAGCAAUAUUACGUGGU,self-splicing fitness (ln),30 °C,-3.02 ± 0.17
same,self-splicing fitness (ln),37 °C,-2.42 ± 0.22
ACUAAGCAAUAUUACGUAGG,self-splicing fitness (ln),30 °C,-1.4 ± 0.074
same,self-splicing fitness (ln),37 °C,-0.98 ± 0.1
UAUAAGCAAUAUUACGUAAG,self-splicing fitness (ln),30 °C,-2.45 ± 0.15
same,self-splicing fitness (ln),37 °C,-1.08 ± 0.16
ACCUAGCAAUAUUACGCGUG,self-splicing fitness (ln),30 °C,-0.901 ± 0.077
same,self-splicing fitness (ln),37 °C,-0.11 ± 0.1
GCAGAGCAAUAUUACGCGUU,self-splicing fitness (ln),30 °C,-1.48 ± 0.11
same,self-splicing fitness (ln),37 °C,-2.09 ± 0.16
UCCGAGCAAUAUUACGAUAC,self-splicing fitness (ln),30 °C,-4.73 ± 0.46
same,self-splicing fitness (ln),37 °C,-2.96 ± 0.35
CAUUAGCAAUAUUACGAUAG,self-splicing fitness (ln),30 °C,-0.405 ± 0.094
same,self-splicing fitness (ln),37 °C,-0.688 ± 0.11
GGAGAGCAAUAUUACGGAGA,self-splicing fitness (ln),30 °C,-2.3 ± 0.29
GCGCAGCAAUAUUACGGUCG,self-splicing fitness (ln),30 °C,-2.26 ± 0.23
same,self-splicing fitness (ln),37 °C,-1.81 ± 0.22
CUACAGCAAUAUUACGGCUU,self-splicing fitness (ln),30 °C,-2.38 ± 0.15
AGGCAGCAAUAUUACGACAU,self-splicing fitness (ln),30 °C,-0.21 ± 0.012
same,self-splicing fitness (ln),37 °C,-0.101 ± 0.032
GAAAAGCAAUAUUACGGGAC,self-splicing fitness (ln),30 °C,-1.06 ± 0.12
same,self-splicing fitness (ln),37 °C,-2.06 ± 0.18
GGGAAGCAAUAUUACGCCGA,self-splicing fitness (ln),30 °C,-1.78 ± 0.17
same,self-splicing fitness (ln),37 °C,-0.238 ± 0.12
ACCGAGCAAUAUUACGCGAG,self-splicing fitness (ln),30 °C,-2.75 ± 0.19
same,self-splicing fitness (ln),37 °C,-2.06 ± 0.15
AAAAAGCAAUAUUACGUGGC,self-splicing fitness (ln),30 °C,-3.59 ± 0.21
same,self-splicing fitness (ln),37 °C,-1.59 ± 0.14
UUUCAGCAAUAUUACGUGGU,self-splicing fitness (ln),30 °C,-3.84 ± 0.2
same,self-splicing fitness (ln),37 °C,-3.02 ± 0.21
CGUAAGCAAUAUUACGGGCG,self-splicing fitness (ln),30 °C,-2.87 ± 0.22
same,self-splicing fitness (ln),37 °C,-1.12 ± 0.14
UACAAGCAAUAUUACGUGAG,self-splicing fitness (ln),30 °C,-3.54 ± 0.17
same,self-splicing fitness (ln),37 °C,-1.91 ± 0.14
CAUAAGCAAUAUUACGAGGG,self-splicing fitness (ln),30 °C,-2.96 ± 0.17
same,self-splicing fitness (ln),37 °C,-2.53 ± 0.28
GAUGAGCAAUAUUACGGGAC,self-splicing fitness (ln),37 °C,-3.23 ± 0.4
GAUUAGCAAUAUUACGCUAU,self-splicing fitness (ln),30 °C,-2.97 ± 0.41
CUGUAGCAAUAUUACGAUUU,self-splicing fitness (ln),37 °C,-2.62 ± 0.36
UAUUAGCAAUAUUACGAGUA,self-splicing fitness (ln),30 °C,-0.732 ± 0.25
same,self-splicing fitness (ln),37 °C,-0.0897 ± 0.24
CUGCAGCAAUAUUACGCUCG,self-splicing fitness (ln),30 °C,-2.3 ± 0.16
same,self-splicing fitness (ln),37 °C,-0.671 ± 0.16
CGCGAGCAAUAUUACGGGUC,self-splicing fitness (ln),30 °C,-3.27 ± 0.2
same,self-splicing fitness (ln),37 °C,-2.38 ± 0.31
GUUAAGCAAUAUUACGAGUG,self-splicing fitness (ln),30 °C,-2.69 ± 0.14
same,self-splicing fitness (ln),37 °C,-1.84 ± 0.16
GCAAAGCAAUAUUACGUCAC,self-splicing fitness (ln),30 °C,-3.96 ± 0.23
same,self-splicing fitness (ln),37 °C,-2.56 ± 0.44
CUAUAGCAAUAUUACGGGAG,self-splicing fitness (ln),30 °C,-2.58 ± 0.27
same,self-splicing fitness (ln),37 °C,-1.87 ± 0.28
AACGAGCAAUAUUACGUGGU,self-splicing fitness (ln),30 °C,-4.57 ± 0.27
same,self-splicing fitness (ln),37 °C,-2.94 ± 0.17
CAUGAGCAAUAUUACGUAGU,self-splicing fitness (ln),30 °C,-5.58 ± 0.41
same,self-splicing fitness (ln),37 °C,-3.3 ± 0.19
UGCCAGCAAUAUUACGGGGA,self-splicing fitness (ln),30 °C,-1.8 ± 0.087
same,self-splicing fitness (ln),37 °C,-0.863 ± 0.11
GGGAAGCAAUAUUACGCUAC,self-splicing fitness (ln),30 °C,-2.26 ± 0.3
same,self-splicing fitness (ln),37 °C,-1.84 ± 0.46
GCAAAGCAAUAUUACGCCGG,self-splicing fitness (ln),30 °C,-2.44 ± 0.17
same,self-splicing fitness (ln),37 °C,-1.71 ± 0.2
UUGAAGCAAUAUUACGCAAC,self-splicing fitness (ln),30 °C,-1.97 ± 0.25
same,self-splicing fitness (ln),37 °C,-2.43 ± 0.39
GUUAAGCAAUAUUACGGCUC,self-splicing fitness (ln),30 °C,0.46 ± 0.2
same,self-splicing fitness (ln),37 °C,-0.6 ± 0.21
CGAUAGCAAUAUUACGAGGG,self-splicing fitness (ln),30 °C,-2.4 ± 0.15
same,self-splicing fitness (ln),37 °C,-2.14 ± 0.26
CCAUAGCAAUAUUACGUUGC,self-splicing fitness (ln),30 °C,-4.15 ± 0.22
same,self-splicing fitness (ln),37 °C,-2.52 ± 0.23
GUCUAGCAAUAUUACGCAAA,self-splicing fitness (ln),30 °C,-1.12 ± 0.13
same,self-splicing fitness (ln),37 °C,-0.541 ± 0.12
GACCAGCAAUAUUACGGGUU,self-splicing fitness (ln),30 °C,-4.24 ± 0.21
same,self-splicing fitness (ln),37 °C,-2.53 ± 0.18
GCAAAGCAAUAUUACGCGGC,self-splicing fitness (ln),30 °C,-3.95 ± 0.21
same,self-splicing fitness (ln),37 °C,-2.43 ± 0.19
CGAAAGCAAUAUUACGAGAU,self-splicing fitness (ln),30 °C,-3.54 ± 0.34
same,self-splicing fitness (ln),37 °C,-1.55 ± 0.17
CCUAAGCAAUAUUACGGCAU,self-splicing fitness (ln),30 °C,-3.48 ± 0.22
same,self-splicing fitness (ln),37 °C,-1.98 ± 0.19
UAAAAGCAAUAUUACGAUAU,self-splicing fitness (ln),30 °C,-2.59 ± 0.1
same,self-splicing fitness (ln),37 °C,-0.953 ± 0.1
AUAGAGCAAUAUUACGGUGC,self-splicing fitness (ln),30 °C,-1.96 ± 0.15
same,self-splicing fitness (ln),37 °C,-2.21 ± 0.46
GAGCAGCAAUAUUACGCCCA,self-splicing fitness (ln),30 °C,-0.299 ± 0.18
same,self-splicing fitness (ln),37 °C,0.255 ± 0.26
UACAAGCAAUAUUACGCAGA,self-splicing fitness (ln),30 °C,-2.31 ± 0.15
same,self-splicing fitness (ln),37 °C,-1.29 ± 0.1
AGACAGCAAUAUUACGUUUU,self-splicing fitness (ln),30 °C,-3 ± 0.13
same,self-splicing fitness (ln),37 °C,-3.77 ± 0.24
CCCUAGCAAUAUUACGCCGC,self-splicing fitness (ln),30 °C,-3.7 ± 0.25
same,self-splicing fitness (ln),37 °C,-1.96 ± 0.27
CUUGAGCAAUAUUACGGAUC,self-splicing fitness (ln),37 °C,-1.45 ± 0.31
GGAGAGCAAUAUUACGCGGG,self-splicing fitness (ln),30 °C,-2.21 ± 0.35
GGGAAGCAAUAUUACGAUUC,self-splicing fitness (ln),30 °C,-0.445 ± 0.14
same,self-splicing fitness (ln),37 °C,-0.851 ± 0.16
